The record followed here is the supplement of paper PMC10567573.

First the molecules themselves.
B1: KLHL14 (parent)
chain: NETGYLSSVECYNLETNEWRYVSS
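Further: lentivirally expressed fusions sorted by FACS into six bins by GFP to DsRed ratio, PSI derived from sequencing read proportions per bin multiplied by bin number.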

Variants of B1 are the subject of the data set. In words: protein stability index of a GFP-peptide fusion (GPS, HEK-293T) (PSI 1-6); higher = more stable. The conditions noted are these: c terminus: a fixed tail appended.
As to NETGYLSSVECYNLETNEWRRVSS [Y21R], the protein stability index amounted to 3.24. With NETGYLSSVECYNLETNEWRKVSS [Y21K] the figure was 2.89; with NETGYLSSVECYNLETNEWRDVSS [Y21D], 4. With NETGYLSSVECYNLETNEWRWVSS [Y21W] the figure was 3.5; with NETGYLSSVECYNLETNEWRCVSS [Y21C], 3.57. With NETGYLSSVECYNLETNEWRHVSS [Y21H] the figure was 2.96; with NETGYLSSVECYNLETNEWRFVSS [Y21F], 1.83. Consider NETGYLSSVECYNLETNEWRLVSS [Y21L], for which the protein stability index was determined as 3.1.

In the case of NETGYLSSVECYNLETNEWRNVSS [Y21N], the protein stability index was 3.67. With NETGYLSSVECYNLETNEWRQVSS [Y21Q] the figure was 3.02. Regarding NETGYLSSVECYNLETNEWRVVSS [Y21V], the protein stability index came out at 3.57.

Turning to NETGYLSSVECYNLETNEWRSVSS [Y21S], the protein stability index came to 3.61. With NETGYLSSVECYNLETNEWREVSS [Y21E] the figure was 3.66. With NETGYLSSVECYNLYTNEWRYVSS [E15Y], the protein stability index was found to be 2.15. With NETGYLSSVECYNLRTNEWRYVSS [E15R] the figure was 2.39.

Consider NETGYLSSVECYNLWTNEWRYVSS [E15W], for which the protein stability index is 2.13. As to NETGYLSSVECYNLTTNEWRYVSS [E15T], the protein stability index was 2.02.

Consider NETGYLSSVECYNLVTNEWRYVSS [E15V], for which the protein stability index was 2.25. With NETGYLSSVECYNLSTNEWRYVSS [E15S] the figure was 2.08. With NETGYLSSVECYNLETNEWSYVSS [R20S] the figure was 3.04; with NETGYLSSVECYNLETNEWLYVSS [R20L], 1.88; with NETGYLSSVECYNLETNEWHYVSS [R20H], 2.83.

Consider NETGYLSSVECYNLETNEWQYVSS [R20Q], for which the protein stability index is 3.49. With NETGYLSSVECYNLETNEWKYVSS [R20K] the figure was 3.6; with NETGYLSSVECYNLETNEWVYVSS [R20V], 2.32. Consider NETGYLSSVECYNLETNEWMYVSS [R20M], for which the protein stability index amounted to 2.65. With NETGYLSSVECYNLETNEWTYVSS [R20T] the figure was 2.69. With NETGYLSSVECYNLETNEWFYVSS [R20F] the figure was 2.2.

For NETGYLSSVECYNLETNEWGYVSS [R20G], the protein stability index worked out at 3.06. With NETGYLSSVECYNLETNEWCYVSS [R20C] the figure was 2.43; with NETGYLSSVECYNLETNEWAYVSS [R20A], 2.95. NETGYLSSVECYNLETNEWWYVSS [R20W]: the protein stability index turned out to be 2.41.

For NETGYLSSVECYNLETNEWIYVSS [R20I], the protein stability index came out at 2.3. In the case of NETGYLSSVECYNLETNEWNYVSS [R20N], the protein stability index turned out to be 3.51. With NETGYLSSVECYNLETNEWEYVSS [R20E] the figure was 4.04; with NETGYLSSVECYNLETNEWDYVSS [R20D], 4.12. With NETGYLSSVECYNLETNEWPYVSS [R20P] the figure was 3.35. With NETGYLSSVECYNLETNEWYYVSS [R20Y] the figure was 2.18. Turning to NETGYLSSVECYNLETNENRYVSS [W19N], the protein stability index turned out to be 5.05. With NETGYLSSVECYNLETNEVRYVSS [W19V] the figure was 4.58; with NETGYLSSVECYNLETNEFRYVSS [W19F], 4.71.

Regarding NETGYLSSVECYNLETNERRYVSS [W19R], the protein stability index was 4.92. With NETGYLSSVECYNLETNEIRYVSS [W19I] the figure was 4.75. Regarding NETGYLSSVECYNLETNETRYVSS [W19T], the protein stability index stood at 4.99. Consider NETGYLSSVECYNLETNEYRYVSS [W19Y], for which the protein stability index stood at 4.5. Regarding NETGYLSSVECYNLETNEKRYVSS [W19K], the protein stability index is 5.08. Take NETGYLSSVECYNLETNECRYVSS [W19C]: the protein stability index worked out at 4.26. With NETGYLSSVECYNLETNEQRYVSS [W19Q] the figure was 4.31. On to NETGYLSSVECYNLETNEDRYVSS [W19D], for which the protein stability index turned out to be 4.83.

For the variant NETGYLSSVECYNLETNEERYVSS [W19E], the protein stability index amounted to 4.97. With NETGYLSSVECYNLETNEARYVSS [W19A] the figure was 4.75; with NETGYLSSVECYNLETNESRYVSS [W19S], 5.26; with NETGYLSSVECYNLETNELRYVSS [W19L], 4.37.

On to NETGYLSSVECYNLETNEPRYVSS [W19P], for which the protein stability index worked out at 3.66.

NETGYLSSVECYNLETNEHRYVSS [W19H]: the protein stability index stood at 4.77. Regarding NETGYLSSVECYNLETNEMRYVSS [W19M], the protein stability index is 4.36. For NETGYLSSVECYNLETNEWRYRSS [V22R], the protein stability index worked out at 3.2. With NETGYLSSVECYNLETNEWRYYSS [V22Y] the figure was 3.02; with NETGYLSSVECYNLETNEWRYFSS [V22F], 2.14; with NETGYLSSVECYNLETNEWRYESS [V22E], 4.18. With NETGYLSSVECYNLETNEWRYLSS [V22L] the figure was 2.81. With NETGYLSSVECYNLETNEWRYDSS [V22D] the figure was 3.8.

For NETGYLSSVECYNLETNEWRYTSS [V22T], the protein stability index worked out at 3.01. NETGYLSSVECYNLETNEWRYCSS [V22C]: the protein stability index is 2.29.

For the variant NETGYLSSVECYNLETNEWRYHSS [V22H], the protein stability index is 2.18.

Consider NETGYLSSVECYNLETNEWRYSSS [V22S], for which the protein stability index came out at 2.71. With NETGYLSSVECYNLETNEWRYMSS [V22M] the figure was 2.95. With NETGYLSSVECYNLETNEWRYKSS [V22K] the figure was 3.25.

Take NETGYLSSVECYNLETNEWRYISS [V22I]: the protein stability index was 2.47. Turning to NETGYLSSVECYNLETNEWRYNSS [V22N], the protein stability index was found to be 3.27. With NETGYLSSVECYNLETNEWRYQSS [V22Q] the figure was 3.73; with NETGYLSSVECYNLETNEWRYWSS [V22W], 2.22. As to NETGYLSSVECYNLETNEWRYPSS [V22P], the protein stability index was found to be 3.16.

As to NETGYLSSVECYNLETNEWRYASS [V22A], the protein stability index is 3.42.

With NETGYLSSVECYNLETNEWRYGSS [V22G], the protein stability index amounted to 3.85. With NETGYLSSVECYNLETNDWRYVSS [E18D] the figure was 3.72.

With NETGYLSSVECYNLETNAWRYVSS [E18A], the protein stability index came to 2.83.

In the case of NETGYLSSVECYNLETNMWRYVSS [E18M], the protein stability index was 2.92.

NETGYLSSVECYNLETNSWRYVSS [E18S]: the protein stability index was 2.9. With NETGYLSSVECYNLETNFWRYVSS [E18F] the figure was 3.41. With NETGYLSSVECYNLETNPWRYVSS [E18P] the figure was 2.58; with NETGYLSSVECYNLETNQWRYVSS [E18Q], 2.93; with NETGYLSSVECYNLETNIWRYVSS [E18I], 2.68.

NETGYLSSVECYNLETNYWRYVSS [E18Y]: the protein stability index amounted to 2.57. With NETGYLSSVECYNLETNNWRYVSS [E18N] the figure was 3.49. Take NETGYLSSVECYNLETNVWRYVSS [E18V]: the protein stability index is 2.62. With NETGYLSSVECYNLETNHWRYVSS [E18H] the figure was 2.94; with NETGYLSSVECYNLETNKWRYVSS [E18K], 3.48; with NETGYLSSVECYNLETNWWRYVSS [E18W], 2.15. With NETGYLSSVECYNLETNLWRYVSS [E18L] the figure was 3.02; with NETGYLSSVECYNLETNCWRYVSS [E18C], 2.55. With NETGYLSSVECYNLETNTWRYVSS [E18T] the figure was 3.22; with NETGYLSSVECYNLETNGWRYVSS [E18G], 2.36; with NETGYLSSVECYNLETNRWRYVSS [E18R], 3.68.
